For one data set, the target named is PABP1 (Homo sapiens) (UniProt P11940). As to conditions: cited from earlier work.
The target of data set [1] is T1, PABP1 (human, UniProt P11940 1-636). The data set can be described thus: EMSA. (Mobility shift assays separate free from complexed probe on a gel.)
The target of the next data set is WT NS1-RBD (Influenza A virus A/Udorn/307/1972 …, UniProt P03495 1-73). Description: fluorescence anisotropy. (In fluorescence polarisation assays a small probe gives low polarisation when free and higher when bound to something large.)
In data set [2] the target is T1, PABP1. The data set can be described thus: EMSA. The source holds these as a separate data set.
Data set [3] concerns the target T1, PABP1. Description: EMSA. The source holds these as a separate data set.

Like-named read-outs stand apart in the source and are kept apart here.

T1 sequence (P11940 whole entry): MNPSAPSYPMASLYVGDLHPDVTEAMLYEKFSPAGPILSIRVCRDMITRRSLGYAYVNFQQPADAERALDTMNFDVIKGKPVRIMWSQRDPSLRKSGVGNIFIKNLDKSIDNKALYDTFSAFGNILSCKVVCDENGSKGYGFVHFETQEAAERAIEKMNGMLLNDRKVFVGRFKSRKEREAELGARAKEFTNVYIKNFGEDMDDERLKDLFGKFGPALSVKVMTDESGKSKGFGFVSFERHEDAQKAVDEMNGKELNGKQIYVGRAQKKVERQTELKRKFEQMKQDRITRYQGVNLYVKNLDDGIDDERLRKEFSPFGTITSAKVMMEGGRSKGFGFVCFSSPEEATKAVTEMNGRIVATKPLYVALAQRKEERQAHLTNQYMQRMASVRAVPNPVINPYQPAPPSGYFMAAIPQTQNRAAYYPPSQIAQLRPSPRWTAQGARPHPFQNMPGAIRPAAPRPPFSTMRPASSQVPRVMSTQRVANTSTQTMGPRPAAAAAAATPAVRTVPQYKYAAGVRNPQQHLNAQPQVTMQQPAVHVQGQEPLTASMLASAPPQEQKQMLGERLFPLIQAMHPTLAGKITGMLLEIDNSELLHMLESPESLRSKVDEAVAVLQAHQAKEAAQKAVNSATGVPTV
Chain of PABP1 (Homo sapiens) (P11940 whole entry): as above
Chain of WT NS1-RBD (P03495 1-73): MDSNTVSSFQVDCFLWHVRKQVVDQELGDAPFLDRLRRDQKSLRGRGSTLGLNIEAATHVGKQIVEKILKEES

A word on the Kd: it is the free concentration of one partner at which half of the binding sites on the other are occupied at equilibrium, for simple one-to-one binding. Take NS1 (from UniProt Q8QPI8): the dissociation constant Kd with PABP1 (Homo sapiens) was 20 nM.

B1: poly(A)60 (ssRNA)
RNA: AAAAAAAAAAAAAAAAAAAAAAAAAAAAAAAAAAAAAAAAAAAAAAAAAAAAAAAAAAAA
Regarding B1, in the data set with PABP1 [1], the binding result is “binds”.

B2: dsRK1 (dsRNA)
RNA 1: CCAUCCUCUACAGGCG
RNA 2: CGCCUGUAGAGGAUGG
As for B2, the affinity with WT NS1-RBD, expressed as Kd, was 76 ± 9 nM.

Take GCUAUCCAGAUUCUGAUU (ssRNA) [ssCR1]: the binding result in the data set with PABP1 [2] was “no binding”.

As for AAAAAAAAAAAAAAAAAA (ssRNA) [poly(A)18], in the data set with PABP1 [3], the binding result was “binds”.

These data come from publication PMC8034803.
